Key:
[1] = target: Biotinylated 2019-nCoV (COVID-19) S1 protein (16-685), His, Avitag (SARS-CoV-2), P0DTC2; assay: SPR, Biacore T200, geomean
[2] = target: SARS-CoV-2 protein used in the SPR assay of Example 2 (not named); assay: SPR

Row | Binder | Kd [1] [µM] | pKD [2]
1 | CIPLDWTCMIAC (modifications not checked) [BCY18707] | 2.44 | –
2 | CVNKHNPVCRFYC (modifications not checked) [BCY16911] | – | 8

— patent publication US20250325672A1
